Test results reported in publication PMC5504490 (Journal of Proteome Research, 2017).

Target: RNAP β′ subunit with 6his (rpoC-6his), in purified RNAP (B. subtilis (strain BS200), UniProt P37871 1-1199)
Experiment: cross-linking

Chain of RNAP β′ subunit with 6his (rpoC-6his), in purified RNAP (P37871 whole entry): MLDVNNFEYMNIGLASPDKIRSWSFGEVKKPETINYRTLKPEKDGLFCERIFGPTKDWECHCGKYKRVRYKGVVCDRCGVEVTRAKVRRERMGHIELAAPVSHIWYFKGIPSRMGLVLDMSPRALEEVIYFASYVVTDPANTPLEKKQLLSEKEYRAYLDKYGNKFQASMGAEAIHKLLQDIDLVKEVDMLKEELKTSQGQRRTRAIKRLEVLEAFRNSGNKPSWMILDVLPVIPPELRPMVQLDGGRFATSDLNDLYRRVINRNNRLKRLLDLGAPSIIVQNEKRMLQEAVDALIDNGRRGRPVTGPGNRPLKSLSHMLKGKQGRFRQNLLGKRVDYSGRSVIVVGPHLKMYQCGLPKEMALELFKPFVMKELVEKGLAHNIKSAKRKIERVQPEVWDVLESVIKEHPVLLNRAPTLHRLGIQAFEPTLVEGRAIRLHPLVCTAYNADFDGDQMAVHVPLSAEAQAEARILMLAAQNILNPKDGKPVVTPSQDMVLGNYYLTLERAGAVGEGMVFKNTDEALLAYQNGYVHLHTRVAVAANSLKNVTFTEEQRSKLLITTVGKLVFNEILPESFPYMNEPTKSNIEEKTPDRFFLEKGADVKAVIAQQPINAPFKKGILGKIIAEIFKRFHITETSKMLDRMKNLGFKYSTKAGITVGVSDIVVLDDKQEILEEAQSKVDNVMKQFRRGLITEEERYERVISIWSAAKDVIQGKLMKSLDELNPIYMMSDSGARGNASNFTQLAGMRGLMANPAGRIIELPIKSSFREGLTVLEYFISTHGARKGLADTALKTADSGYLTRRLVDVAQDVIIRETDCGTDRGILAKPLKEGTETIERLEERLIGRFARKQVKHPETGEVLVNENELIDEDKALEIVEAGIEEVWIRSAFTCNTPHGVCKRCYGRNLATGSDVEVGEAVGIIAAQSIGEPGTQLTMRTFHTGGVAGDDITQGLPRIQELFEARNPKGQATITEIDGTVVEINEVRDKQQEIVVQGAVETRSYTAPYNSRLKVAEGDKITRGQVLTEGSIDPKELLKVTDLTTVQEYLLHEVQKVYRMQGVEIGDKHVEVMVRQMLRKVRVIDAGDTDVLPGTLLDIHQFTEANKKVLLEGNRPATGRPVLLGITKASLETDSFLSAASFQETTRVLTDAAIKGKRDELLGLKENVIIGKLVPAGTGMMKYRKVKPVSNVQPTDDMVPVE

B1: δ subunit (RpoE) of RNAP (natural protein)
chain: MGIKQYSQEELKEMALVEIAHELFEEHKKPVPFQELLNEIASLLGVKKEELGDRIAQFYTDLNIDGRFLALSDQTWGLRSWYPYDQLDEETQPTVKAKKKKAKKAVEEDLDLDEFEEIDEDDLDLDEVEEELDLEADDFDEEDLDEDDDDLEIEEDIIDEDDEDYDDEEEEIK
- binding result: binds
